Measured values taken from paper PMC11840927, “Frataxin Traps Low Abundance Quaternary Structure to Stimulate Human Fe–S Cluster Biosynthesis” (Biochemistry, 2025).

B1: Escherichia coli acyl-carrier protein (natural protein)
chain: MSTIEERVKKIIGEQLGVKQEEVTNNASFVEDLGADSLDTVELVMALEEEFDTEIPDEEAEKITTVQAAIDYINGHQA
modifications: acyl-4′PPT (assumed mass 523 Da)
notes: Escherichia coli acyl-carrier protein (ACPec) associated with NFS1-ISD11; The ACP chain of m1; also called ACPec; ACP; source: co-purified within the SDAec complex

Key:
[1] = target: SDAec complex with the Q64S, P299H, L300Q NFS1 triple variant (human | Escherichia coli) (UniProt Q9Y697)
[2] = target: T1, NFS1(Δ1–55) with N-terminal His6 tag (human, UniProt Q9Y697 56-457, covalently attached PLP); test: native MS; protomer exchange: 1:1 mix of 15N- and 14N-labelled SDAec (or His-tagged and untagged IscS), room temperature, 200 mM ammonium acetate pH 8.5, EMR Orbitrap; ratio of exchanged dimer to the sum of unexchanged dimers; α2β2γ2 (or IscS dimer) to protomers and back; details: both partners purified
T1 construct: NFS1, human cysteine desulfurase, Δ1–55 (residues 56 to the C-terminus); The NFS1 chain of m1; also called α subunit; source: recombinant, co-purified within the SDAec complex; not shown: His6, N-terminal, kept

Molecule | FXN-stimulated cysteine desulfurase activity (μM S^2–/min·μM NFS1) [1] | binding result [2]
FXN (Δ1–81) (from UniProt Q16595 82-210) (natural protein) | 8 | –
B1 | – | binds
